According to US20090176711A1, “INHIBITORS OF AMYLOID PRECURSOR PROTEIN PROCESSING” (priority 2008, published 2009):
Entries after “also recorded” stand apart in the source; their conditions may differ. Non-standard residues stand in square brackets, D forms with d. No end group written: not given here. *: point of attachment. Biotin = O=C1N[C@H]2[C@H](CS[C@H]2CCCCC(=O)*)N1; Dnp = O=[N+]([O-])c1ccc(*)c([N+](=O)[O-])c1; Mca = COc1ccc2c(CC(=O)*)cc(=O)oc2c1; Ahx = NCCCCCC(=O)O

Legend:
[1] = tested on: cleavage of Substrate M by β-secretase; test: Inhibition of cleavage of Substrate M by β-secretase by complementary and deletion peptides (Examples 1, 5, 6; assay format not stated); format: biochemical; details: for inhibitory activity of deletion peptides on cleavage of Substrate M: 10 inhibitor/substrate ratio, Substrate M 50 μM; for concentration dependent inhibitory activity, activity group: various concentrations, Substrate M (FIG. 8); for inhibition of cleavage of Substrate M by β-secretase: FIG. 4
Experimental: So far we have focused on c-Sub M peptide. Serial deletions were made from N-terminus or C-terminus of c-Sub M (FIG. 5), and we investigated effect of the deletions on the cleavage of Substrate M. The optimum peptide/substrate ratio for inhibition on the cleavage of substrate was determined by observing the inhibition percentage at various peptide/substrate ratios (FIG. 4). Subsequently, the inhibitory activity of the deletion peptides were tested at 10 inhibitor/substrate ratio and the concentration of the Substrate M was 50 μM. Deletion of the first two amino acids from the N-terminus had little effect on the activity and deletion of five amino acids from the C-terminus of c-Sub M had little effect on the inhibitory activity (FIG. 6). Further deleted peptides were tested for inhibitory activity on the cleavage of Substrate M (FIG. 7).
The above-mentioned peptides that have inhibitory activity were tested at various concentrations for their inhibitory activities on their mutant substrate Substrate M (FIG. 8).

[2] = tested on: cleavage of F-Substrate M (f-Sub M) by rhBACE1; test: Fluorometric (FRET) assay for cleavage of F-Substrate M by rhBACE; format: biochemical, human; details: for inhibitory activity for cleavage of f-Sub M by rhBACE1: f-Sub M 10 μM
Source text: This assay system utilizes fluorescence resonance energy transfer (FRET) technology. Substrate M was synthesized with two fluorophores, a fluorescent donor and a proprietary quenching acceptor (purchased from a commercial source, R&D Systems). […] Upon cleavage of substrate by β-secretase, the fluorophore is separated from the quenching group, restoring the full fluorescence yield of donor.
Substrate labeled with fluorophores will be called F-Substrate M (R&D Systems). Recombinant human β-secretase will be called rhBACE (recombinant human β-site APP cleavage enzyme) (purchased from R&D systems).
F-Substrate M (20 μM) was preincubated with varying concentrations of complementary peptides in assay buffer (0.1 M NaOAc, pH 4.0) for 1 hr at RT. rhBACE (70 nM) in assay buffer was added. Cleavage by rhBACE was detected by reading emitted fluorescence level.
In this assay system, fluorescence resonance energy transfer (FRET) technology was utilized. Swedish mutant APP substrate (f-Sub M) with a fluorescent donor and a proprietary quenching acceptor (7-methoxycoumarin-4-acetyl-SEVNLDAEFRK(Dnp)-RR-NH2) was purchased from R&D systems, Inc (MN, USA). […] Upon cleavage of substrate by rhBACE1 (R&D Systems, Inc., MN, USA), the fluorescence donor is separated from the quenching group, restoring the full fluorescence yield of the donor. f-Sub M (10 μM) was pre-incubated with HC peptide in assay buffer (0.1 M NaOAc, pH 4.0) for 2 h at RT. After pre-incubation, substrate and HC peptide mixture in assay buffer was transferred to FluoroNunc™ 96 well white plate (Nunc, Roskilde, Denmark), and rhBACE1 (70 nM) was added. Time-dependent emission of fluorescence (excitation at 320 nm, emission at 405 nm) was monitored in a Molecular Devices SpectraMax Gemini EM fluorescence reader (CA, USA) for 1 h at 37° C. All assays were carried out in duplicate.

[3] = molecular target: T1, Substrate W (Sub W, SEVKMDAEFR; β-secretase cleavage site of wild type APP) (Homo sapiens, UniProt P05067); test: Binding of biotin-labeled Substrate W to immobilized complementary (HC) peptides; details: complementary peptide immobilized, biotin-labeled Substrate W
T1 construct: […]; purchased Peptron, Inc; host or cells: chemical synthesis
Experimental: (§1) Complementary peptides (0.2, 2, 20, and 200 μM) were dissolved in phosphate buffered saline (PBS) (pH 7.4) and fixed to microtiter wells for 5 hr at 37° C. The wells were blocked with blocking buffer (3% BSA/PBS) for 1 hr at 37° C. Either N-terminally biotinylated Substrate W or M (20 μM) in blocking buffer was added and incubated for overnight at 4° C. Streptavidin-horseradish peroxidase in blocking buffer was added to detect resulting bound substrates. The plate was incubated for 2 hr at room temperature (RT), followed by addition of 3,3′,5,5′-tetramethyl-benzidine (TMB) as substrate for horseradish peroxidase for color reaction.
In particular, for Substrate W, complementary peptides (200 μM) dissolved in phosphate buffered saline (PBS) (pH 7.4) were chemically coupled to Reacti-Bind Maleic Anhydride Activated Polystyrene wells (Pierce Biotechnology, Inc.) for overnight at room temperature (RT). Remaining active sites of the plate were inactivated by adding ethanolamine (1 M) for 1 hr at RT. The wells were blocked with blocking buffer (3% BSA/PBS) for 1 hr at RT. N-terminally biotinylated Substrate W (20 μM) in blocking buffer was added and incubated for 3 hr at RT. Streptavidin-horseradish peroxidase in blocking buffer was added to detect resulting bound substrates. The plate was incubated for 2 hr at room temperature (RT), followed by addition of 3,3′,5,5′-tetramethyl-benzidine (TMB) as substrate for horseradish peroxidase for color reaction.
(§2) Reacti-Bind™ maleic anhydride-activated polystyrene plate (Pierce, IL, USA) was coated with 50 μl of HC peptide (200 μM in distilled water) by chemical coupling for 3 h at room temperature (RT) and washed three times with phosphate buffered saline (PBS) containing 0.05% tween 20 (PBST). The plate was blocked with blocking buffer (0.5% gelatin in PBS) for 1 h at RT. After discarding blocking buffer, biotinylated BACE1 substrates (200 μM) in blocking buffer was applied on the plate and incubated for 2.5 h at RT. Each well was washed three times with PBST. The bound biotinylated BACE1 substrates were detected by incubation with streptavidin-horseradish peroxidase (Str-HRP, 125 mU/ml in blocking buffer) for 2 h at RT. Color reaction was carried out with 50 μl of 3,3′,5,5′-Tetramethylbenzidine Liquid Substrate (Sigma-Aldrich, MO, USA). After stopping the reaction by addition of an equal volume of 1 N HCl, absorbance at 450 nm was read in an automated ELISA reader (EL 312e, Bio-Tek Instruments, VT, USA). All assays were carried out in duplicate.

[4] = tested on: Substrate M (Sub M, SEVNLDAEFR; β-secretase cleavage site of APPsw); test: Binding of biotin-labeled Substrate M to immobilized complementary (HC) peptides; details: for binding activity for Sub M: HC peptides chemically coupled to plate, bio-Sub M
Experimental: as §1, §2

[5] = molecular target: T2, f-Sub M (7-methoxycoumarin-4-acetyl-SEVNLDAEFRK(Dnp)-RR-NH2); test: cell-based or functional assay
T2 peptide: Mca-SEVNLDAEFRK(Dnp)RR-NH2

Sub-ST6Ga11 = molecular target: T3, Sub-ST6Ga11; test: cell-based or functional assay
T3 peptide: DYEALTLQAKEFQMPKSQE

[6] = molecular target: T4, Substrate M (non-labeled); test: cell-based or functional assay
T4 peptide: SEVNLDAEFR

[7] = molecular target: T5, N-terminally biotinylated Substrate W; test: plate assay: HC peptide chemically coupled to wells, bio-Sub W, streptavidin-HRP (FIG. 27)
T5 construct: also called bio-Sub W; Sub W
T5 peptide: Biotin-SEVKMDAEFR
Experimental: as §2
Thereafter, it was investigated if the c-Sub M and the deletions series bind to wild type Sub W. The results will give us important information on possibility of inhibition of wild type of APP cleavage in cells by the HC peptides derived from Sub M in view of the poor cleavage of Sub W by rhBACE1 in vitro. […] Thus, there is possibility that the HC peptides for Sub M (c-Sub M series) or its peptidomimetics will inhibit the cleavage of wild type APP by BACE1 in cells.

## CIQI [C-Sub MΔN3C3]
[1]
  inhibitory activity of deletion peptides on cleavage of Substrate M: considerable inhibitory activity
  concentration dependent inhibitory activity, activity group: medium activity

## CIQIHF (also: cyclic, mode of cyclisation not given here) [c-Sub M ΔN3C1]
[2]; N-terminal deletions of c-Sub M ΔC1, HC peptide 0.5 mM
  inhibitory activity for cleavage of f-Sub M by rhBACE1: maintains much of the original activity of c-Sub M; also recorded: without sacrificing the inhibitory activity too much
[2]; substrate concentration 10 μM
  inhibitory activity relative to c-Sub M ΔN1C1: about one tenth
[1]
  inhibitory activity of deletion peptides on cleavage of Substrate M: considerable inhibitory activity
  concentration dependent inhibitory activity, activity group: less activity

## RLHFYLRLKA [Sub W-c]
[3]
  binding to Substrate W: do not bind
[1]
  inhibition of cleavage of Substrate M by β-secretase: do not inhibit cleavage

## RLHLDLRLKA [Sub M-c]
[4]; complementary peptide immobilized, biotin-labeled Substrate M
  binding to Substrate M: do not bind
[1]
  inhibition of cleavage of Substrate M by β-secretase: do not inhibit cleavage

## SEFCI (also: cyclic, mode of cyclisation not given here) [c-SubM ΔC5]
[1]
  concentration dependent inhibitory activity, activity group: medium activity

## SEFCIHLHFR (also: cyclic, mode of cyclisation not given here) [c-Sub W]
[4]
  binding activity for Sub M: weak but significant binding
[3]
  binding to Substrate W: bind
[2]; HC peptide 1 mM
  inhibitory activity for cleavage of f-Sub M by rhBACE1: higher inhibitory activity
[1]
  inhibition of cleavage of Substrate M by β-secretase: inhibit cleavage
  concentration dependent inhibitory activity, activity group: medium activity

## SEFCIQI (also: cyclic, mode of cyclisation not given here) [c-SubM ΔC3]
[1]
  concentration dependent inhibitory activity, activity group: most active group

## SEFCIQIHF [c-Sub M ΔC1]
[4]
  binding activity for Sub M: relatively high binding activity

## SEFCIQIH-NH2 [c-Sub M ΔC2]
[5]
  inhibitory activity for the cleavage of f-Sub M by rhBACE1 (FRET; HC peptide 1 mM, f-Sub M 10 µM): 44%

B1: 6-aminohexanoic acid-c-Sub M ΔN3C1 (peptide)
peptide: [Ahx]CIQIHF-NH2
modifications: N-terminus assumed
SMILES: CC[C@H](C)[C@H](NC(=O)[C@H](CCC(N)=O)NC(=O)[C@@H](NC(=O)[C@H](CS)NC(=O)CCCCCN)[C@@H](C)CC)C(=O)N[C@@H](Cc1c[nH]cn1)C(=O)N[C@@H](Cc1ccccc1)C(N)=O
[5]
  in vitro inhibitory activity on cleavage of f-Sub M by rhBACE1 relative to c-Sub M ΔN3C1 (FRET): ~0.5 fold of c-Sub M ΔN3C1

## FCIQIHF-NH2 (also called FCIQIHF) [c-Sub M ΔN2C1]
Sub-ST6Ga11
  percent of ST6Ga11 peptide cleavage by β-secretase blocked (HPLC), 25-fold inhibitor: 25%
[6]
  percent of Sub M cleavage by β-secretase blocked (HPLC), 25-fold inhibitor: ~60%
[7]
  binding result: binds

B2: c-Sub M ΔN1C1 (peptide)
peptide: EFCIQIHF-NH2
notes: also called one amino acid deletion from N-terminal of c-Sub M ΔC1
Sub-ST6Ga11
  inhibition of the cleavage of Sub-ST6Ga11 by rhBACE1 (HPLC), inhibitor/substrate ratio 20: 40%
  inhibition of the cleavage of Sub-ST6Ga11 by rhBACE1 (HPLC), up to 10 inhibitor/substrate ratio: ~10%
[6]
  inhibition of the cleavage of Sub M by rhBACE1 (HPLC), inhibitor/substrate ratio 20: 100%
  inhibition of the cleavage of Sub M by rhBACE1 (HPLC), up to 10 inhibitor/substrate ratio: 60%
[5]
  IC50 of inhibition of f-Sub M (10 µM) cleavage by rhBACE1 (FRET): 15 µM
[7]
  fold binding to Sub W relative to c-Sub W: 2.5 fold

## SEFCI-NH2 [c-Sub M ΔC5]
[5]
  inhibitory activity for the cleavage of f-Sub M by rhBACE1 (FRET; HC peptide 1 mM, f-Sub M 10 µM): > 90%

## CIQIHF-NH2 (also called c-Sub M ΔC1N3; c-Sub ΔN3C1) [c-Sub M ΔN3C1]
[5]
  inhibitory activity relative to c-Sub M ΔN1C1, f-Sub M (10 µM) cleavage by rhBACE1 (FRET): ~0.1 fold of c-Sub M ΔN1C1
[7]
  binding result: binds

## SEFCIQ-NH2 [c-Sub M ΔC4]
[5]
  inhibitory activity for the cleavage of f-Sub M by rhBACE1 (FRET; HC peptide 1 mM, f-Sub M 10 µM): > 90%

## SEFCIQI-NH2 [c-Sub M ΔC3]
[5]
  inhibitory activity for the cleavage of f-Sub M by rhBACE1 (FRET; HC peptide 1 mM, f-Sub M 10 µM): > 90%
